Two molecules from paper doi:10.1101/2023.03.17.532973 (bioRxiv, 2023) can be followed below.

Data set [1] deals with the molecule itself. Kind of data set: cryo-EM structure.
The target of data set [2] is T1, SHMT1 (cytosolic serine hydroxymethyltransferase) WT (Homo sapiens, UniProt P34896 1-483).
T1 sequence: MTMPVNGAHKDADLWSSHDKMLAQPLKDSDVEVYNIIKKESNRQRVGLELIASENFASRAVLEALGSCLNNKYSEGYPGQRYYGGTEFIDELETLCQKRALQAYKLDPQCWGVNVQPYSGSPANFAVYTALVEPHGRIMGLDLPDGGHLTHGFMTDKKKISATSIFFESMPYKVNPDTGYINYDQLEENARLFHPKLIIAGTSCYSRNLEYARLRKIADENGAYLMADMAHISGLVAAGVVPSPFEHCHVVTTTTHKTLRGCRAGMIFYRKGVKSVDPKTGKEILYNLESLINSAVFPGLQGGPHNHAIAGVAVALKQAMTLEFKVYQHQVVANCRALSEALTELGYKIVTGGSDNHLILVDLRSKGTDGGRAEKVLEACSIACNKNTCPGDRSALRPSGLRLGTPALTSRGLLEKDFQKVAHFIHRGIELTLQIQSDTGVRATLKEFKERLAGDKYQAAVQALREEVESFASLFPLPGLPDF
In words: EMSA.

B1: human cytosolic serine hydroxymethyltransferase (SHMT1), wild type (enzyme)
chain: DADLWSSHDKMLAQPLKDSDVEVYNIIKKESNRQRVGLELIASENFASRAVLEALGSCLNNKYSEGYPGQRYYGGTEFIDELETLCQKRALQAYKLDPQCWGVNVQPYSGSPANFAVYTALVEPHGRIMGLDLPDGGHLTHGFMTDKKKISATSIFFESMPYKVNPDTGYINYDQLEENARLFHPKLIIAGTSCYSRNLEYARLRKIADENGAYLMADMAHISGLVAAGVVPSPFEHCHVVTTTTHKTLRGCRAGMIFYRKGVKSVDPKTGKEILYNLESLINSAVFPGLQGGPHNHAIAGVAVALKQAMTLEFKVYQHQVVANCRALSEALTELGYKIVTGGSDNHLILVDLRSKGTDGGRAEKVLEACSIACNKNTCPGDRSALRPSGLRLGTPALTSRGLLEKDFQKVAHFIHRGIELTLQIQSDTGVRATLKEFKERLAGDKYQAAVQALREEVESFASLFPLPGL
A word on the stoichiometry N: it is the number of molecules, sites or subunits per partner or assembly. Take B1: the “stoichiometry N” value in data set [1] is 4.
As to UGUGGCCUUUUGGGAAUUGUAGUUCGCCCACUCACCGCUUUUUUCUUUAU (structured_RNA) [UTR2 1-50 Rv (reverse complement)], the binding result in data set [2] is listed as “binds”.
